From patent US20190010233A1 (JIANGSU HYAMAB PHARMACEUTICAL, published 2019)
Read-outs that look alike come from different tables or passages of the source. One block for each binder: values may come before it.

Experiments:
[1] = biological target: T1, full length human PD-L1 on cells (human, UniProt Q9NZQ7 19-290); assay: cell-based or functional assay
[2] = biological target: T2, human PD-L1^ECD-hFc protein (human, UniProt Q9NZQ7 19-239, biotinylated in the PD-1 binding ELISA (Table 3) and in the Octet assay (Table 12)); assay: ELISA, 0.00003 nM mAb
T2 construct: The plain and the biotinylated protein are kept as one molecule; also called PD-L1-hFc; Immunogen A; not shown: human IgG Fc fragment (hFc)

[3] = biological target: T2, human PD-L1^ECD-hFc protein; assay: ELISA, 0.03 nM mAb
[4] = biological target: T2, human PD-L1^ECD-hFc protein; assay: ELISA, 30 nM mAb
[5] = biological target: T3, cyno PD-L1^ECD-hFc protein (cyno, UniProt G7PSE7 19-239); assay: ELISA, 0.003 nM mAb
T3 construct: also called Cyno Monkey PD-L1^ECD-hFc

[6] = biological target: T2, human PD-L1^ECD-hFc protein; assay: ELISA receptor-ligand blocking assay: PD-L1 protein coated, fully human antibody titrated, blocked ligand B7.1, inhibition rate (%)
[7] = biological target: T2, human PD-L1^ECD-hFc protein; assay: ELISA, 3 nM mAb
[8] = biological target: T1, full length human PD-L1 on cells; assay: cell-based or functional assay; remark: listed apart in the source
[9] = biological target: T2, human PD-L1^ECD-hFc protein; assay: ELISA, 0.3 nM mAb
[10] = biological target: T3, cyno PD-L1^ECD-hFc protein; assay: ELISA, 0.3 nM mAb
[11] = biological target: T3, cyno PD-L1^ECD-hFc protein; assay: ELISA, 0.03 nM mAb
[12] = biological target: T3, cyno PD-L1^ECD-hFc protein; assay: ELISA, 3 nM mAb
[13] = biological target: T3, cyno PD-L1^ECD-hFc protein; assay: ELISA, 0.0003 nM mAb
[14] = biological target: T1, full length human PD-L1 on cells; assay: cell-based or functional assay; remark: listed apart in the source
[15] = biological target: T2, human PD-L1^ECD-hFc protein; assay: ELISA, 0.0003 nM mAb
[16] = biological target: T2, human PD-L1^ECD-hFc protein; assay: ELISA, 0.003 nM mAb
[17] = biological target: T3, cyno PD-L1^ECD-hFc protein; assay: ELISA, 30 nM mAb
[18] = biological target: T3, cyno PD-L1^ECD-hFc protein; assay: ELISA, 0.00003 nM mAb
[19] = biological target: T1, full length human PD-L1 on cells; assay: cell-based or functional assay; remark: listed apart in the source
[20] = biological target: T2, human PD-L1^ECD-hFc protein; assay: ELISA receptor-ligand blocking assay: PD-L1 protein coated, fully human antibody titrated, blocked ligand PD-1, inhibition rate (%)
[21] = biological target: T1, full length human PD-L1 on cells; assay: cell-based or functional assay; remark: listed apart in the source

T2 sequence (Q9NZQ7 19-239): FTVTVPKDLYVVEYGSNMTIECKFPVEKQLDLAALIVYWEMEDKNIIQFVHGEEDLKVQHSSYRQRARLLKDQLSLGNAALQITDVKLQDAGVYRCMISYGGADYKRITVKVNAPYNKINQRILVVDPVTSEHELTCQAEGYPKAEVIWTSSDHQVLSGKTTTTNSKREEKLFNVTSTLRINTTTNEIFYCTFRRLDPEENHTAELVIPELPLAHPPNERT
T3 sequence (G7PSE7 entry or part of it limits assumed): as the sequence (Q9NZQ7 19-239) above, with A33T, A34S, S62N, R68Q, Q82R, F173L, T185A, T192I, H215L counted along it
T1 sequence (Q9NZQ7 19-290 limits assumed): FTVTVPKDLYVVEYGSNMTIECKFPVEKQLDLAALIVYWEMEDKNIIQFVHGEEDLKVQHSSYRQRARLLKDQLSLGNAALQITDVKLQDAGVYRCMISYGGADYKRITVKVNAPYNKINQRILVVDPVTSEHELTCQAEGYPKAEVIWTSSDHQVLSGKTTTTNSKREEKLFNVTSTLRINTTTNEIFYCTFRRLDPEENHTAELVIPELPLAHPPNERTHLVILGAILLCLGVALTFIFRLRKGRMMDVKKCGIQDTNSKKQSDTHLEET

IFN-γ (pg/mL), T cell stimulation assay, 0.001 µg/mL mAb [1]: 6150 pg/mL
IFN-γ (pg/mL), T cell stimulation assay, 0.01 µg/mL mAb [1]: 13100 pg/mL
IFN-γ (pg/mL), T cell stimulation assay, 0.1 µg/mL mAb [1]: 11500 pg/mL
IFN-γ (pg/mL), T cell stimulation assay, 1 µg/mL mAb [1]: 15200 pg/mL
OD450 nm [2]: 0.287
OD450 nm [3]: 0.786
OD450 nm [4]: 2.59
OD450 nm [5]: 0.376
IC50 (read off the curve) [6]: ~0.8 nM
OD450 nm [7]: 2.67
IFN-γ (pg/mL), MLR, 0.001 µg/mL mAb [8]: 9030 pg/mL
IFN-γ (pg/mL), MLR, 0.01 µg/mL mAb [8]: 11200 pg/mL
IFN-γ (pg/mL), MLR, 0.1 µg/mL mAb [8]: 19600 pg/mL
IFN-γ (pg/mL), MLR, 1 µg/mL mAb [8]: 22900 pg/mL
IFN-γ (pg/mL), MLR, 10 µg/mL mAb [8]: 15500 pg/mL
OD450 nm [9]: 2.52
OD450 nm [10]: 2.55
OD450 nm [11]: 0.953
OD450 nm [12]: 2.66
OD450 nm [13]: 0.348
IL-2 (pg/mL), MLR, 0.001 µg/mL mAb [14]: 210 pg/mL
IL-2 (pg/mL), MLR, 0.01 µg/mL mAb [14]: 341 pg/mL
IL-2 (pg/mL), MLR, 0.1 µg/mL mAb [14]: 713 pg/mL
IL-2 (pg/mL), MLR, 1 µg/mL mAb [14]: 721 pg/mL
IL-2 (pg/mL), MLR, 10 µg/mL mAb [14]: 770 pg/mL
OD450 nm [15]: 0.285
OD450 nm [16]: 0.322
OD450 nm [17]: 2.54
OD450 nm [18]: 0.324
IFN-γ (pg/mL), MLR, 0.001 µg/mL mAb [19]: 592 pg/mL
IFN-γ (pg/mL), MLR, 0.01 µg/mL mAb [19]: 915 pg/mL
IFN-γ (pg/mL), MLR, 0.1 µg/mL mAb [19]: 1870 pg/mL
IFN-γ (pg/mL), MLR, 1 µg/mL mAb [19]: 2760 pg/mL
IFN-γ (pg/mL), MLR, 10 µg/mL mAb [19]: 2270 pg/mL
IC50 (read off the curve) [20]: ~1 nM
B1: fully human anti-PD-L1 antibody 192D9E7 (antibody, human IgG4 S228P, kappa, V domains shown)
VH: EVQLVESGGGLVQPGGSLRLSCAASGFTFSSYWMSWVRQAPGKGLEWVADIKQDGSEKYYVDSVKGRFTISRDNAKNSLYLQMNSLRAEDTAVYYCTRDKPHWGGVMDAWGQGTSVTVSS
VL: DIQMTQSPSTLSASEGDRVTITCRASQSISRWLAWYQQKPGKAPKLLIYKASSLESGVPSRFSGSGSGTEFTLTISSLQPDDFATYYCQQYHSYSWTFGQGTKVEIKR
notes: also called 192D9E7 (fully human); 192D9F7

IFN-γ (pg/mL), T cell stimulation assay, 0.001 µg/mL mAb [1]: 5090 pg/mL
IFN-γ (pg/mL), T cell stimulation assay, 0.01 µg/mL mAb [1]: 11200 pg/mL
IFN-γ (pg/mL), T cell stimulation assay, 0.1 µg/mL mAb [1]: 9340 pg/mL
IFN-γ (pg/mL), T cell stimulation assay, 1 µg/mL mAb [1]: 14100 pg/mL
OD450 nm [2]: 0.281
OD450 nm [3]: 0.852
OD450 nm [4]: 2.59
OD450 nm [5]: 0.332
IC50 (read off the curve) [6]: ~1 nM
OD450 nm [7]: 2.68
OD450 nm [9]: 2.48
OD450 nm [10]: 2.49
OD450 nm [11]: 0.889
OD450 nm [12]: 2.6
OD450 nm [13]: 0.28
OD450 nm [15]: 0.264
OD450 nm [16]: 0.329
OD450 nm [17]: 2.59
OD450 nm [18]: 0.297
IC50 (read off the curve) [20]: ~2 nM
B2: fully human anti-PD-L1 antibody 127D2F3 (antibody, human IgG4 S228P, kappa, V domains shown)
VH: EVQLVESGGGLVQPGGSLRLSCVASGFTFSSYWMSWVRQAPGKGLEWVANIKQDGSEKYYVDSVKGRLTISRDNAKNSLYLQMKSLRAEDTAVYYCARDPIYSSYFDYWGQGILVTVSS
VL: DIQMTQSPSSLSASVGDRVTITCRASQSISNYLNWYQQKPGKAPKLLIYAASSLQSGVPSRFSGSGSGTDFTLTISSLQPEDFAAYYCQQSYGIPFTFGPGTKVDIKR
notes: also called 127D2F3 (fully human)

IFN-γ (pg/mL), T cell stimulation assay, 0.001 µg/mL mAb [1]: 6780 pg/mL
IFN-γ (pg/mL), T cell stimulation assay, 0.01 µg/mL mAb [1]: 10900 pg/mL
IFN-γ (pg/mL), T cell stimulation assay, 0.1 µg/mL mAb [1]: 13100 pg/mL
IFN-γ (pg/mL), T cell stimulation assay, 1 µg/mL mAb [1]: 13500 pg/mL
OD450 nm [2]: 0.256
OD450 nm [3]: 0.855
OD450 nm [4]: 2.67
OD450 nm [5]: 0.358
IC50 (read off the curve) [6]: ~0.9 nM
OD450 nm [7]: 2.72
IFN-γ (pg/mL), MLR, 0.001 µg/mL mAb [8]: 9790 pg/mL
IFN-γ (pg/mL), MLR, 0.01 µg/mL mAb [8]: 10700 pg/mL
IFN-γ (pg/mL), MLR, 0.1 µg/mL mAb [8]: 21700 pg/mL
IFN-γ (pg/mL), MLR, 1 µg/mL mAb [8]: 21700 pg/mL
IFN-γ (pg/mL), MLR, 10 µg/mL mAb [8]: 16900 pg/mL
OD450 nm [9]: 2.48
OD450 nm [10]: 2.52
OD450 nm [11]: 1
OD450 nm [12]: 2.65
OD450 nm [13]: 0.283
IL-2 (pg/mL), MLR, 0.001 µg/mL mAb [14]: 215 pg/mL
IL-2 (pg/mL), MLR, 0.01 µg/mL mAb [14]: 274 pg/mL
IL-2 (pg/mL), MLR, 0.1 µg/mL mAb [14]: 654 pg/mL
IL-2 (pg/mL), MLR, 1 µg/mL mAb [14]: 729 pg/mL
IL-2 (pg/mL), MLR, 10 µg/mL mAb [14]: 601 pg/mL
OD450 nm [15]: 0.254
OD450 nm [16]: 0.403
OD450 nm [17]: 2.6
OD450 nm [18]: 0.308
IC50 (read off the curve) [20]: ~1 nM
IFN-γ (pg/mL), T cell stimulation assay, 0.001 µg/mL mAb [21]: 5120 pg/mL
IFN-γ (pg/mL), T cell stimulation assay, 0.01 µg/mL mAb [21]: 6340 pg/mL
IFN-γ (pg/mL), T cell stimulation assay, 0.1 µg/mL mAb [21]: 9360 pg/mL
IFN-γ (pg/mL), T cell stimulation assay, 1 µg/mL mAb [21]: 8790 pg/mL
IFN-γ (pg/mL), T cell stimulation assay, 10 µg/mL mAb [21]: 13100 pg/mL
B3: fully human anti-PD-L1 antibody 73G11B3 (antibody, human IgG4 S228P, kappa, V domains shown)
VH: EVQLVESGGGLVQPGGSLRLSCVVSGFTFSSYWMSWVRQTPGKGLEWVANIKQDGSEKYYVDSVKGRLTISRDNAKNSLYLQMNSLRAEDTAVYYCVRDRAVPGTGALDIWGQGTMVTVSS
VL: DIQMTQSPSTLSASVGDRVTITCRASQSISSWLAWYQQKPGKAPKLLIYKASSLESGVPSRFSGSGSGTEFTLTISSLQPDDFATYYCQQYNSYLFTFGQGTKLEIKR
notes: also called 73G11B3 (fully human)
